Experimental data as given in patent US5942405A, “Therapeutic and screening methods using C3a receptor and C3a” (priority 1997, dated 1999).

T1: C3a Receptor (Homo sapiens, UniProt Q16581)
T1 sequence (Q16581 1-482 F151C): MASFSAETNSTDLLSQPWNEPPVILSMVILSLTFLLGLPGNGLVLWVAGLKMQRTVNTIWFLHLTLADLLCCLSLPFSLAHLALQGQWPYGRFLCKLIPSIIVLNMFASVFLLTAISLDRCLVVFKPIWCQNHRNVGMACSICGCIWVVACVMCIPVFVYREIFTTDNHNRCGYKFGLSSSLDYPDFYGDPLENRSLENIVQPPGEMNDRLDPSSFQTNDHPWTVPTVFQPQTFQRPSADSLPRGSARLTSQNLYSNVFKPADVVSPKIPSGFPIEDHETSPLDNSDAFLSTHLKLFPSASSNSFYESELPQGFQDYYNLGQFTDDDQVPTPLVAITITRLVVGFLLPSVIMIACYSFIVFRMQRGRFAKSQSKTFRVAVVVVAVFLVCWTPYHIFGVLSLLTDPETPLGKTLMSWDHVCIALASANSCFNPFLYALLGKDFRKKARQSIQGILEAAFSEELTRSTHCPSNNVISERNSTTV


Key:
C5a-R = assay: Calcium mobilization by Fura 2 loaded RBL-2H3 cells stably expressing C5a-R; format: cell-based, human; conditions: RBL-2H3 cells expressing C5a-R, Fig. 4: rC5a 10 nM, C3a analogue peptide 1 uM
Description: (§1) (A) Electrophysiological response of Xenopus oocytes injected with cRNA for C3a Receptor (10 ng), total U937 RNA (25 ng), or a mixture of C3a Receptor (10 ng) and U937 RNA (25 ng) to 10 nM rC5a, 10 nM C3a analogue peptide, 10 nM platelet activating factor (PAF), 10 nM fMetLeuPhe. Inset, represents typical response of oocytes co-injected with C3a Receptor cRNA+U937 RNA to 10 nM C3a. (B) Electrophysiological response of oocytes injected with C5a-R cRNA (10 ng), U937 RNA (25 ng) or a mixture of C5a-R and U937 RNA, to 10 nM rC5a or 10 nM C3a analogue peptide. […] Calcium mobilization by Fura 2 loaded cells expressing C5a receptor (FIGS. 4A & 4C) or C3a Receptor (FIGS. 4B & 4D) in response to rC5a (10 nM, FIG. 4A or 100 nM, FIG. 4B) or C3a analogue peptide (1 uM, FIGS. 4C & 4D).
(§2) To prepare C3a Receptor for expression in mammalian cells, a 1.6 kb cDNA fragment was obtained by PCR amplification that encompassed the entire C3a Receptor open reading frame. This fragment was subcloned into KpnI/Hind III sites of the mammalian expression vector, pCDN (Aiyar, N., et al (1994) Mol. Cell. Bio. 131, 75-86). Oligonucleotide primers used for PCR amplification were 5'-GA AGT GGT ACC ATG GCG TC-3' (SEQ ID NO:4) and 5'-GC TCCAAGCTTTCACACAGTTG-3' (SEQ ID NO:5) (the translation start and stop codons are underlined). RBL-2H3 cells were electroporated with either C3a Receptor or C5a-R in the pCDN mamalian expression vector (Aiyar, N., et al (1994) Mol. Cell. Bio. 131, 75-86), exactly as described (DeMartino, J. A., et al (1994) J. Biol Chem. 269, 14446-14450). Individual G418 resistant (400 μg/ml) colonies were isolated and expanded. Clonal cell lines expressing either C3a Receptor or C5a-R were chosen for further functional and binding studies.
(§3) RBL-2H3 cells (Siraganian, R. P., et al (1982) Fed. Proc. 41, 30-34), a rat basophil cell line, when transfected with an expression plasmid encoding the C5a-R express receptors that are functionally active (DeMartino, J. A., et al (1994) J. Biol. Chem. 269, 14446-14450). RBL-2H3 cells were stably transfected with mammalian expression plasmids encoding the C5a-R or C3a Receptor and Fura 2 loaded cells were tested for a C5a or C3a induced mobilization of intracellular Ca^2+.
(§4) Fura 2 loaded clonal cell lines expressing C5a-R or C3a Receptor were assayed for functional response, Ca^2+ mobilization, as described (Saussy, D. L. Jr., et al (1989) J. Biol. Chem. 264, 19845-19855).

C3a Receptor [1] = molecular target: T1, C3a Receptor; assay: Calcium mobilization by Fura 2 loaded RBL-2H3 cells stably expressing C3a Receptor; format: cell-based; parameters: cDNA encoding a complete orphan GPCR of 482 amino acids; expressed in transfected cells; conditions: for EC50: Fura 2 loaded RBL-2H3 cells expressing C3a Receptor, read-out: EC50, mobilization of intracellular Ca2+; for mobilization of intracellular Ca2+ (response in words): RBL-2H3 cells expressing C3a Receptor, Fig. 4: rC5a 100 nM, C3a analogue peptide 1 uM
Description: as §1, §2, §3, §4

C3a Receptor [2] = molecular target: T1, C3a Receptor; assay: Whole cell 125I-C3a binding to C3a Receptor expressing RBL-2H3 cells (competition and saturation); parameters: cDNA encoding a complete orphan GPCR of 482 amino acids; expressed in transfected cells; conditions: for IC50: RBL-2H3 cells expressing C3a Receptor, 1×10^6 cells; for IC50 / competition of 125I-C3a binding / specific binding (in words): 2.3 nM labelled C3a; for competition of 125I-C3a binding / specific binding (in words): cells expressing C3a Receptor
From the text: as §2
The C3a carboxy-terminal analogue synthetic peptide, [WWGKKYRASKLGLAR (SEQ ID NO:3)] was obtained from Bachem Bioscience, Inc., King of Prussia, Pa. C3a was purchased from Advanced Research Technologies, San Diego, Calif. Human rC5a was expressed in E. coli and purified to homogeneity. Other agonists were obtained from Sigma, St. Louis, MO. C3a was radioiodinated using IODOBEADS (Pierce, Rockford Ill.) to a specific activity of 100 Cilmmol. Increasing concentrations of cold competitor were added to 1×10^6 cells in the presence of ^125 -C3a (2.3 nM), and the assay was performed essentially as described (Klos, A., et al (1992) Biochemistry 31, 11274-11282).
C3a was radioiodinated and used in whole cell binding assays to further characterize C3a Receptor. […] Curiously, HEK 293 cells stably expressing C3a Receptor mRNA by Northern Blot, neither bound nor responded to C3a (data not shown).

Molecule | mobilization of intracellular Ca2+ (response in words) (C5a-R) | mobilization of intracellular Ca2+ (response in words) (C5a-R; listed as native human C3a) | EC50 (C3a Receptor [1]) | mobilization of intracellular Ca2+ (response in words) (C3a Receptor [1]) | mobilization of intracellular Ca2+ (response in words) (C3a Receptor [1]; listed as native human C3a) | IC50 (C3a Receptor [2]) | competition of 125I-C3a binding / specific binding (in words) (C3a Receptor [2]) | Bmax (C3a Receptor [2]; saturation binding and Scatchard analysis, data not shown) | Kd (C3a Receptor [2]; saturation binding and Scatchard analysis, single class of sites, data not shown) | mobilization of intracellular Ca2+ (response in words) (C3a Receptor [1]; listed as C3a synthetic peptide)
C3a: C3a was purchased from Advanced Research Technologies, San Diego; anaphylatoxin; radioiodinated for binding | not C5a receptor bind and respond | not C5a-R expressing RBL-2H3 cells also responded | 0.3 nM | bind and respond | responded | 3 nM | specifically bind | 32,000 receptors per cell | 0.3 nM | –
WWGKKYRASKLGLAR [C3a analogue synthetic peptide, reference compound] | no response | – | 3.9 nM | respond | – | 155 nM | specifically bind | – | – | robust response
rC5a: Human rC5a was expressed in E. coli and purified to homogeneity (protein, UniProt P01031 678-751, looked up, C5a anaphylatoxin recombinant, E. coli, Human rC5a was expressed in E. coli and purified to homogeneity) C5a anaphylatoxin: TLQKKIEEIAAKYKHSVVKKCCYDGACVNNDETCEQRAARISLGPRCIKAFTECCVVASQLRANISHKDMQLGR | responded | – | – | not C3a Receptor expressing cells responded | – | – | not | – | – | –
